For experiment [1], the target named is T1, human NaPi2b (sodium-dependent phosphate transport protein 2B, SLC34A2) (human, UniProt O95436 1-690).
T1 construct: also called NaPiIIb; Npt2
T1 sequence: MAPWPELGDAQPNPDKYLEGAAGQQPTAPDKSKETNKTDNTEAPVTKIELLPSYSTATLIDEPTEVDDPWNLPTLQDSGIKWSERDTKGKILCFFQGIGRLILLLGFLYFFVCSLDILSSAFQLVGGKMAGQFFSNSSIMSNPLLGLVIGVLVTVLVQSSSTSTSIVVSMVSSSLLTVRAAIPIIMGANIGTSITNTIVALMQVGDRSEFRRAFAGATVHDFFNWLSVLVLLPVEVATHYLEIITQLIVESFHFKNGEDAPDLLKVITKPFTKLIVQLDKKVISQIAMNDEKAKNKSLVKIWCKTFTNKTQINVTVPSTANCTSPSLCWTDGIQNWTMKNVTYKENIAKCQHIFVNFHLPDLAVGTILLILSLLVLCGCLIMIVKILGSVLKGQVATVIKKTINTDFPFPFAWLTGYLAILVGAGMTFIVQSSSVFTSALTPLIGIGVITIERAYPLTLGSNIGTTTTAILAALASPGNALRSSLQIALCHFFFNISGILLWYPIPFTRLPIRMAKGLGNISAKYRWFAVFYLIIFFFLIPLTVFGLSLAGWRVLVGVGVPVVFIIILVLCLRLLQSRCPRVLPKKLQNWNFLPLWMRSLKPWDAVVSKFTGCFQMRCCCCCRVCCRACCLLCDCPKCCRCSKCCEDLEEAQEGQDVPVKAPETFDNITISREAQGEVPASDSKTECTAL
The experiment can be described thus: flow cytometry on OVCAR3 cells, Alexa Fluor 647 goat anti-human IgG detection, one site specific binding fit. As to the method: (§1) TOV-21G or OVCAR3 cells were grown overnight to approximately 90% confluent cultures in media, then were released from the plate surface by treatment with Trypsin-EDTA (Gibco-Thermo Fisher Scientific, USA). The detached cells were washed once with ice cold media containing 6% goat serum and resuspended in the same media. 50,000 cells were aliquoted per well of a V-bottom, 96-well plate and incubated with a range of test articles concentrations (0.23-500 nM) in 100 μl Media (1:1 mixture MCDB105 (1.5 g/L sodium bicarbonate) and Medium 199 (2.2 g/L sodium bicarbonate plus 15% FBS)) with 6% goat serum on ice for 3 hours. The cells were then washed once with ice cold PBS and resuspended in 150 μl Media with 2% goat serum and 6 μg/ml of a secondary fluorescently labeled antibody, Alexa Fluor® 647-labelled goat anti-human IgG (Life Technologies, Cat# A-21445) for 1 hour on ice. The cells were washed once with ice cold PBS and suspended in 150 μl of ice cold PBS with 1% paraformaldehyde. The amount of fluorescence bound per cell was determined by running 5000 cells for each treatment on a MACSQuant flow cytometer (Miltenyi Biotec, Bergisch Gladbach, Germany). The median fluorescence value for each treatment was graphed, and the binding constant, KD was calculated for each test article with GraphPad Prism software by non-linear regression using the one site specific binding model.
(In general: Flow cytometry measures light scatter and fluorescence of single cells or particles in a stream.)

Experiment [2] has as its target T1, human NaPi2b (sodium-dependent …). The experiment can be described thus: flow cytometry on TOV-21G cells, Alexa Fluor 647 goat anti-human IgG detection, one site specific binding fit. How it is done:
as §1

Among the data in patent publication US20170266311A1 (published 2017) are Kd values, retold here.

B1: XMT 1535 antibody (antibody, human IgG1, kappa, V domains shown)
VH: QVQLVQSGAEVVKPGASVKMSCKASGYTFTGYNIHWVKQAPGQGLEWIGAIYPGNGDTSYKQKFRGRATLTADTSTSTVYMELSSLRSEDSAVYYCARGETARATFAYWGQGTLVTVSS
VL: DIQMTQSPSSLSASVGDRVTITCSASQDIGNFLNWYQQKPGKTVKVLIYYTSSLYSGVPSRFSGSGSGTDYTLTISSLQPEDFATYYCQQYSKLPLTFGQGTKLELKR
notes: Full IgG1
With B1, the figures for the Kd in experiment [1] and in experiment [2] were 6.59 nM and 2.46 nM, respectively.

B2: Example 1C, XMT 1535-(EG2-MI-(10 kDa PHF-BA-(AF-HPA-Ala))) (antibody, human IgG1, kappa, V domains shown)
VH: B1 VH
VL: B1 VL
modifications: EG2-MI-(10 kDa PHF-BA-(AF-HPA-Ala)) polymer-drug scaffolds attached by maleimide to cysteines of the partially reduced antibody; positions and chain not stated; DAR about 11:1 to about 15:1
As for B2, the Kd stood at 3.84 nM in experiment [1] and 3.97 nM in experiment [2].

For orientation: Kd means the constant that tells how readily two partners part at equilibrium.
